In paper PMC9177983:

Target: reconstituted elongation complex (EC): His-tagged E. coli RNAP core complex on template DNA, non-template DNA and RNA transcript (E. coli)

Chain of NusG (P0AFG0 whole entry): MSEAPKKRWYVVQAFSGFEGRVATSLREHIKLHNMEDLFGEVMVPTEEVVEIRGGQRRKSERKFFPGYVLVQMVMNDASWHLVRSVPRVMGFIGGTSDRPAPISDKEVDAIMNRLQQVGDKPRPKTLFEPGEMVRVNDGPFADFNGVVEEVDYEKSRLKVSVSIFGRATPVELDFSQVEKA

Which smFRET of surface-immobilised ECs with 500 nM NusG, no nucleotide: percentage of dynamic ECs in the high-mid and high-low FRET regimes (23% for EC alone) does the source give for “NusG (from UniProt P0AFG0 1-181) (natural protein)” here?
The smFRET of surface-immobilised ECs with 500 nM NusG, no nucleotide: percentage of dynamic ECs in the high-mid and high-low FRET regimes (23% for EC alone) was 33%.
